From patent publication US20230193285, “BISPECIFIC PERSONALIZED APTAMERS” (Aummune Ltd., published 2023)

Experiments:
[1] = target: T1, Notch2 (Homo sapiens, UniProt Q04721 Q04721:26-1677); assay: thermofluorimetric analysis; settings: tags: Fc fusion, R&D Systems
Experimental: (§1) TFA was used to determine the binding of CTL3 with its putative target Notch2.100 nM CTL3, 1 uM SYBR green I (sigma), Fc-Notch2 human (R&D Systems) or Fc-CD160 (abcam) at 20, 40, 80, 160, and 320 nM were mixed together and SYBR green and fluorescence was measured from Temp=25° C. to Temp=95° C. at 1 degree/min using RT-PCR, in triplicates. The subsequent experiment was done with 50 nM of either CTL3 (SEQ ID NO: 3), scrambled-CTL3-A (SEQ ID NO: 86), or scrambled-CTL3-B (SEQ ID NO: 87); 1 µM SYBR green I (sigma); Fc-Notch2 human (R&D Systems), Fc-Notch2 mouse (R&D Systems) or Fc-Notch2 rat at 25, 50, 100 and 200 nM similar to the former experiment.

[2] = target: T2, CD3 epsilon (Homo sapiens, UniProt P07766 P07766:23-126); assay: SPR; settings: tags: Fc chimera His tag, Abcam ab220590
T2 sequence (P07766 23-126, one chain of several): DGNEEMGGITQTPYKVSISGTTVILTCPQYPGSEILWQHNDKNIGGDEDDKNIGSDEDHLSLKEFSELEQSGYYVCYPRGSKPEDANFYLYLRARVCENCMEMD

[3] = target: CD3 epsilon (Jurkat T cells) (Homo sapiens, UniProt P07766 P07766:23-207); assay: flow; binding to Jurkat cells, 1 h 37 C, PBS 1 mM MgCl2, BSA, tRNA; settings: tags: native on Jurkat cells ATCC TIB-152; label: Cy5-CpG' complementary strand
CD3 epsilon (Jurkat T cells), sequence (P07766 23-207, one chain of several): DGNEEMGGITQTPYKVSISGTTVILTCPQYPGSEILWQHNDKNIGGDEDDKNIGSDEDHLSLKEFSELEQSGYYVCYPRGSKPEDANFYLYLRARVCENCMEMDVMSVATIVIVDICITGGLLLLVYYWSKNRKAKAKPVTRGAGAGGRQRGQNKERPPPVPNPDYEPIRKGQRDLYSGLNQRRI
Experimental: 5 x10⁴ Jurkat cells were washed and re-suspended in x1 folding buffer that contain 0.1% BSA and 0.01% tRNA. 0.1-80 nM of CS6 aptamer were labelled with CpG′-Cy5 tag (1:1 ratio) and folded (95℃ 5 min, ice 10 min, and maintenance at 4℃). Next, the DNA aptamers were mixed with the cells and incubated for 1 hr at 37℃ in V shape 96 well plate under gentle shaking conditions. After incubation, the cells were washed twice with folding buffer X1 and analysed via flow cytometry (CytoFlex).
Subsequently CS6 effective concentration 50 (EC₅₀) was evaluated. A serial dilution of -Cy5 labelled aptamer was incubated with Jurkat cells for 1 hr at 37℃ and assessed for binding via flow cytometry (FIG. 27).

[4] = target: T2, CD3 epsilon; assay: HPLC size exclusion; negative control sequence; settings: tags: Fc chimera His tag, Abcam ab220590; label: Cy5
Experimental: Top five candidates (CS6, CS7, CS8, CS9, and CS8c; SEQ ID NOs: 88-92, respectively) were synthesized with a 5(5′) phosphothioated CpG motif and assayed for Human CD3ε (hCD3ε) binding via the HPLC size exclusion column. In this method, the aptamers were labelled with Cy5 complementary sequence to the CpG site (Cy5-CpG’). Then, the folded-labelled candidates are incubated, each, with the CD3ε- recombinant protein or with negative control IgG1 (1 hr at 37℃ and 4℃) and analyzed by HPLC ProSEC 300S size exclusion column (Agilent) at 570 nm absorption. Upon protein binding, the aptamer-protein complex has a greater mass than a free aptamer and as a result, the retention time (RT) at the column is expected to be shorter. Inversely, in the case of non-binding aptamer, the RT in the presence of protein will be the same as in the absence of the protein. As a control, PolyT sequence was used.

[5] = target: T1, Notch2; assay: thermofluorimetric analysis with SYBR green; dose-dependent, saturates between 100-200 nM protein; settings: tags: Fc fusion, R&D Systems
Experimental: as §1
(§2) A Tₘ melting curve profile was generated by measuring SYBR green fluorescence during temperature gradient, to monitor aptamer-protein complexes in the presence of different concentrations of either Notch2 or the non-specific control (CD 160 protein). Only upon the addition of increasing concentrations of Notch2, and not CD160, a dose-dependent change in CTL3-associated fluorescence was measured (FIG. 19). When looking at the total fluorescence graph, high fluorescence intensity can be seen at 25° C., however, when examining the derivative rate of change of […] (dF/dT) curves, the temperature-dependent intensity reached a maximum at 37° C.

[6] = target: T3, CD160 (UniProt O95971 O95971:25-159); assay: thermofluorimetric analysis; specificity control; settings: tags: Fc fusion, abcam
T3 sequence: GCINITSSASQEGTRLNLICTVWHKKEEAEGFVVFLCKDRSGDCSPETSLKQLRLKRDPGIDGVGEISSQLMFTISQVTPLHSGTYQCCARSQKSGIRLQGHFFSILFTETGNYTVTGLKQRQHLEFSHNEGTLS
Experimental: as §1, §2

T1 sequence (Q04721 26-1677, one chain of several): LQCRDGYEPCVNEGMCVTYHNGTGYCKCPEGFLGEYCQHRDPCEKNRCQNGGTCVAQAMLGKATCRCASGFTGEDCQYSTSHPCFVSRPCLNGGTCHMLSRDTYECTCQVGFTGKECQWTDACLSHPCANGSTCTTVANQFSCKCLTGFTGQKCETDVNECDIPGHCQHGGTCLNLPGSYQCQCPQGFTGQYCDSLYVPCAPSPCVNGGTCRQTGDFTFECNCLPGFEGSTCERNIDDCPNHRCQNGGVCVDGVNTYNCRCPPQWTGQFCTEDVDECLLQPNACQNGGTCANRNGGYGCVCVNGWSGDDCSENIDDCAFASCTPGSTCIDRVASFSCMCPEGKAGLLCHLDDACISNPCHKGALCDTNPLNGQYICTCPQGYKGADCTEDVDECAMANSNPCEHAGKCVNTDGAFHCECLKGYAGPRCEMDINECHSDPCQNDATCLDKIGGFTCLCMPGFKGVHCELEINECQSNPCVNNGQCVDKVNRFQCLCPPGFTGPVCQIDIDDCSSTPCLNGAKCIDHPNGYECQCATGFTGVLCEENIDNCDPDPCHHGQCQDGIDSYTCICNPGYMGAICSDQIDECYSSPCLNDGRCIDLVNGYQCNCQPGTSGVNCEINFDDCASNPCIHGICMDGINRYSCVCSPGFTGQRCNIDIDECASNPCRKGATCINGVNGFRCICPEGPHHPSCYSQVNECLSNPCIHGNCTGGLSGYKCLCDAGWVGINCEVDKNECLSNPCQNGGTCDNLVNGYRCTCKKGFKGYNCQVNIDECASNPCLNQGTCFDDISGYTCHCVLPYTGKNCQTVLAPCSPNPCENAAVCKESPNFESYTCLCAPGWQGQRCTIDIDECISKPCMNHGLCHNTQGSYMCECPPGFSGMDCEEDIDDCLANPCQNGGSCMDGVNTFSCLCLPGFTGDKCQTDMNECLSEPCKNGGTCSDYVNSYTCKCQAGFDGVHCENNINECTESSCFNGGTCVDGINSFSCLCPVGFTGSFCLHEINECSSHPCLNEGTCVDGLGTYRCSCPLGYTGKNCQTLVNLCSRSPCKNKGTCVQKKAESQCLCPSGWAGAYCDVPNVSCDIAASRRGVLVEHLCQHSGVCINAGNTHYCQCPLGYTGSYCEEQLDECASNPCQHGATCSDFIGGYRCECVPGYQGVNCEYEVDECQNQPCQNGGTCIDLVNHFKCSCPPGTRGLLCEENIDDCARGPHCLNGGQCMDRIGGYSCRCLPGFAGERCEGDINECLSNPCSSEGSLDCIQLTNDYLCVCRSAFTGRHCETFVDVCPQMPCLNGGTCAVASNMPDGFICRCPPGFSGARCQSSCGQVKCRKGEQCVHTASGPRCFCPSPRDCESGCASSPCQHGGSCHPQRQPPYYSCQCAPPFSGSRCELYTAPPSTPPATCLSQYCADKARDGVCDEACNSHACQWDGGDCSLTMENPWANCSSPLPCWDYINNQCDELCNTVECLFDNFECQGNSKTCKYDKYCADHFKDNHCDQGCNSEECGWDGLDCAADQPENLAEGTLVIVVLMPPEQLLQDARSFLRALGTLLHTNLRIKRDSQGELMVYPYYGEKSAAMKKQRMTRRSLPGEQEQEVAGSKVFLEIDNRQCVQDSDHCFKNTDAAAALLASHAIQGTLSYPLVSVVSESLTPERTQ

B1: Scrambled-CTL3-B (ssDNA)
DNA: TCTTTCGTTAGCGCTTCTCTCTTGCGATTCCGACCGCATATTCACGTCTT
binding result [1]: no binding

B2: CS6 (ssDNA)
DNA: ATCGTATAAGGGCTGCTTAGGATTGCGATAATACGGTCAA
Kd [2]: 31 nM

B3: Scrambled-CTL3-A (ssDNA)
DNA: GTTCTTATAATCGCCTCTGCGCTATGTTCTTGCTCGCCTTCCATATCGCT
binding result [1]: no binding

B4: CpG1-CS6 (ssDNA)
DNA: TCGTCGTCGCGGTTCGCGTCCGTATCGTATAAGGGCTGCTTAGGATTGCGATAATACGGTCAA
modifications: PS on first five 5' nucleotides of CpG motif
EC50 [3]: 19.6 nM

B5: PolyT control (ssDNA)
DNA: TCGTCGTCGCGGTTCGCGTCCGTTTTTTTTTTTTTTTTTTTTTTTTTTTTTTTTTTTTTTTTTTTTTTTTTTT
binding result [4]: no binding

B6: CTL3 (ssDNA)
DNA: GCATACCTTTCGTATGCCTTTTTGACCCGTATTTTTGCCCTACCCTTCGG
binding result [5]: binds | binding result [6]: no binding
